Source: US20190071490A1 (BETH ISRAEL DEACONESS MEDICAL CENTER, published 2019)
Ends that are not written are not given here.

Experiments:
[1] = target: T1, human α-CGRP 1-37 (WT) (human, C-terminal amide; N-terminal biotin when captured on the SA chip; 125I-labelled in the radioligand assay); assay: Biacore, 37°C, high-resolution two-part experiment
T1 construct: also called α-human
T1 peptide: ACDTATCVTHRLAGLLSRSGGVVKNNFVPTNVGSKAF
Protocol: (§1) Biacore assay for affinity determination. […] All Biacore assays were conducted in HBS-EP running buffer (10 mM HEPES pH 7.4, 150 mM NaCl, 3 mM EDTA, 0.005% v/v polysorbate P20). CGRP surfaces were prepared by diluting the N-biotinylated CGRP to a concentration of less than 0.001 mg/mL into HBS-EP buffer and injecting it across the SA sensor chip using variable contact times. […] Samples were typically injected for 1 minute at 100 μL/min and dissociation times of at least 10 minutes were allowed. […] An entire titration series (typically generated in duplicate) was fit globally to a 1:1 Langmuir binding model using the BIAevaluation program. This returned a unique pair of association and dissociation kinetic rate constants (respectively, kₒₙ and koff) for each binding interaction, whose ratio gave the equilibrium dissociation constant (KD=koff/kₒₙ).
(§2) High-resolution analysis of binding interactions with extremely slow off rates. […] The protocol described above was used with the following modifications.

[2] = target: T2, human α-CGRP 19-36 (human); assay: Biacore competition: 50 nM G1 Fab with 10 µM peptide over human α-CGRP on chip
T2 construct: also called 19-36-COOH; peptide fragment 19-36
T2 peptide: SGGVVKNNFVPTNVGSKA-OH
Excerpt: (§3) Y axis represents percentage of binding blocked by the presence of the competing peptide compared with the binding in the absence of the competing peptide.
(§4) All these peptides are amidated at the C-terminus.

[3] = target: T3, Human amylin (1-37) (human, C-terminal amide); assay: as above
T3 peptide: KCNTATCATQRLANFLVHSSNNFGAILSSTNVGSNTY
Excerpt: as §3, §4

[4] = target: T4, Human calcitonin (1-32) (human, C-terminal amide); assay: as above
T4 peptide: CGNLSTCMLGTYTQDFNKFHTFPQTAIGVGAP
Excerpt: as §3, §4

[5] = target: T5, Human adrenomedullin (1-52) (human, C-terminal amide); assay: as above
T5 peptide: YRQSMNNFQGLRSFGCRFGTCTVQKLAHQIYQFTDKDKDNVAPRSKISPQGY
Excerpt: as §3, §4

[6] = target: T6, human β-CGRP (1-37) (human, C-terminal amide; N-terminal biotin when captured on the SA chip); assay: Biacore, 37°C, Fab over N-biotinylated CGRP on SA chip, 20-min dissociation
T6 construct: also called human β (1-37)
T6 peptide: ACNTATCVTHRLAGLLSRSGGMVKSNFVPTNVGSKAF
Protocol: as §1

[7] = target: T7, rat β-CGRP (1-37) (rat, C-terminal amide; N-terminal biotin when captured on the SA chip); assay: as above
T7 construct: also called rat β (1-37)
T7 peptide: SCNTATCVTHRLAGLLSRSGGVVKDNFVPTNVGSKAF
Protocol: as §1

[8] = target: T8, human α-CGRP 1-13-COOH (human, ends and bridges not checked); assay: Biacore competition: 50 nM G1 Fab with 10 µM peptide over human α-CGRP on chip
T8 peptide: ACDTATCVTHRLA-OH

[9] = target: T9, human α-CGRP 1-19-COOH (human, ends and bridges not checked); assay: as above
T9 peptide: ACDTATCVTHRLAGLLSRS-OH

[10] = target: T1, human α-CGRP 1-37 (WT); assay: Biacore, 25°C, Fab over N-biotinylated CGRP on SA chip, high-resolution two-part experiment
Protocol: as §1, §2

[11] = target: T10, rat α-CGRP (1-37) (rat, C-terminal amide; N-terminal biotin when captured on the SA chip); assay: as above
T10 construct: also called rat α (1-37); α-rat
T10 peptide: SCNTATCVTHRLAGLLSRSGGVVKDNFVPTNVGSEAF
Protocol: as §1, §2

[12] = target: T1, human α-CGRP 1-37 (WT); assay: Biacore, 37°C, Fab over N-biotinylated CGRP on SA chip, high-resolution two-part experiment
Protocol: as §1, §2

[13] = target: T10, rat α-CGRP (1-37); assay: as above
Protocol: as §1, §2

B1: antibody G1 Fab fragment (Fab, V domains shown)
VH: EVQLVESGGGLVQPGGSLRLSCAASGFTFSNYWISWVRQAPGKGLEWVAEIRSESDASATHYAEAVKGRFTISRDNAKNSLYLQMNSLRAEDTAVYYCLAYFDYGLAIQNYWGQGTLVTVSS
VL: EIVLTQSPATLSLSPGERATLSCKASKRVTTYVSWYQQKPGQAPRLLIYGASNRYLGIPARFSGSGSGTDFTLTISSLEPEDFAVYYCSQSYNYPYTFGQGTKLEIK
[1]
  Kd: 0.06 nM
[2]
  binding result: no binding (tested: 10 µM peptide)
[3]
  binding result: no binding (tested: 10 µM peptide)
[4]
  binding result: no binding (tested: 10 µM peptide)
[5]
  binding result: no binding (tested: 10 µM peptide)
[6]
  Kd: 0.155 nM
[7]
  Kd: 0.152 nM
[8]
  binding result: no binding (tested: 10 µM peptide)
[9]
  binding result: no binding (tested: 10 µM peptide)
[10]
  Kd: 0.042 nM
[11]
  Kd: 1.22 nM
[12]
  Kd: 0.063 nM
[13]
  Kd: 2.57 nM
